Results published in US12649778.
Values joined by “and” are separate entries in the source; they are usually repeats but may differ in a detail not shown here. Identical values can stand only once.

What was measured:
[1] = target: Peptide 1593 (…) (Mycobacterium tuberculosis); test: ELISA, NNK clone supernatant on coated peptide
[2] = target: Peptide 1593 (…) (Mycobacterium tuberculosis); test: ELISA, NNK clone supernatant on coated peptide (22 hits)

Row | Binder | OD450 nm [1] | ratio (OD450 to WT OD450) [1] | OD450 nm [2] | ratio (OD450 to WT OD450) [2]
1 | 65D3 chimeric Fab, NNK library L3 mutant S to A (VL S25A) (Fab, V domains shown) VH: QSLEESGGRLVTPGGSLTLTCTVSGFSLSTHDISWVRQAPGKGLEWIGVIARRGSTYYASWAKGRFTISKTSTTVDLKITSPTIEDTATYFCAREEFDFWGQGTLVTVSS VL: AVLTQTASPVSAAVGGTVTISCQSAQSVYNNKELSWFQQKPGQPPKLLISYASTLASGVPSRFKGSGSGTQFTLTISDLECDDAATYYCLGGYASTIDMWAFGGGTEVVVK | 0.972 OD450 | 1.21 fold of WT | 0.972 OD450 | 1.21 fold of WT
2 | 65D3 chimeric Fab, NNK library L3 mutant S to T (VL S25T) (Fab, V domains shown) VH: QSLEESGGRLVTPGGSLTLTCTVSGFSLSTHDISWVRQAPGKGLEWIGVIARRGSTYYASWAKGRFTISKTSTTVDLKITSPTIEDTATYFCAREEFDFWGQGTLVTVSS VL: AVLTQTASPVSAAVGGTVTISCQSTQSVYNNKELSWFQQKPGQPPKLLISYASTLASGVPSRFKGSGSGTQFTLTISDLECDDAATYYCLGGYASTIDMWAFGGGTEVVVK | 0.956 OD450 | 1.19 fold of WT | 0.956 OD450 | 1.19 fold of WT
3 | 65D3 chimeric Fab, NNK library H17 mutant S to W (H-S55W) (Fab, V domains shown) VH: QSLEESGGRLVTPGGSLTLTCTVSGFSLSTHDISWVRQAPGKGLEWIGVIARRGWTYYASWAKGRFTISKTSTTVDLKITSPTIEDTATYFCAREEFDFWGQGTLVTVSS VL: AVLTQTASPVSAAVGGTVTISCQSSQSVYNNKELSWFQQKPGQPPKLLISYASTLASGVPSRFKGSGSGTQFTLTISDLECDDAATYYCLGGYASTIDMWAFGGGTEVVVK | 1.28 OD450 | 2.06 fold of WT |  | 
4 | 65D3 chimeric Fab, NNK library L3 mutant S to H (VL S25H) (Fab, V domains shown) VH: QSLEESGGRLVTPGGSLTLTCTVSGFSLSTHDISWVRQAPGKGLEWIGVIARRGSTYYASWAKGRFTISKTSTTVDLKITSPTIEDTATYFCAREEFDFWGQGTLVTVSS VL: AVLTQTASPVSAAVGGTVTISCQSHQSVYNNKELSWFQQKPGQPPKLLISYASTLASGVPSRFKGSGSGTQFTLTISDLECDDAATYYCLGGYASTIDMWAFGGGTEVVVK | 0.95 OD450 and 0.97 OD450 | 1.18 fold of WT and 1.2 fold of WT | 0.95 OD450 | 1.18 fold of WT
5 | 65D3 chimeric Fab, NNK library L5 mutant S to K (VL S27K) (Fab, V domains shown) VH: QSLEESGGRLVTPGGSLTLTCTVSGFSLSTHDISWVRQAPGKGLEWIGVIARRGSTYYASWAKGRFTISKTSTTVDLKITSPTIEDTATYFCAREEFDFWGQGTLVTVSS VL: AVLTQTASPVSAAVGGTVTISCQSSQKVYNNKELSWFQQKPGQPPKLLISYASTLASGVPSRFKGSGSGTQFTLTISDLECDDAATYYCLGGYASTIDMWAFGGGTEVVVK | 1.16 OD450 | 1.49 fold of WT | 1.16 OD450 | 1.49 fold of WT
6 | 65D3 chimeric Fab, NNK library L8 mutant N to K (VL N30K) (Fab, V domains shown) VH: QSLEESGGRLVTPGGSLTLTCTVSGFSLSTHDISWVRQAPGKGLEWIGVIARRGSTYYASWAKGRFTISKTSTTVDLKITSPTIEDTATYFCAREEFDFWGQGTLVTVSS VL: AVLTQTASPVSAAVGGTVTISCQSSQSVYKNKELSWFQQKPGQPPKLLISYASTLASGVPSRFKGSGSGTQFTLTISDLECDDAATYYCLGGYASTIDMWAFGGGTEVVVK | 1.04 OD450 and 1.03 OD450 | 1.37 fold of WT and 1.35 fold of WT | 1.04 OD450 | 1.37 fold of WT
7 | 65D3 chimeric Fab, NNK library H26 mutant G to K (H-G64K) (Fab, V domains shown) VH: QSLEESGGRLVTPGGSLTLTCTVSGFSLSTHDISWVRQAPGKGLEWIGVIARRGSTYYASWAKKRFTISKTSTTVDLKITSPTIEDTATYFCAREEFDFWGQGTLVTVSS VL: AVLTQTASPVSAAVGGTVTISCQSSQSVYNNKELSWFQQKPGQPPKLLISYASTLASGVPSRFKGSGSGTQFTLTISDLECDDAATYYCLGGYASTIDMWAFGGGTEVVVK | 1.09 OD450 | 1.3 fold of WT |  | 
8 | 65D3 chimeric Fab, NNK library L5 mutant S to T (VL S27T) (Fab, V domains shown) VH: QSLEESGGRLVTPGGSLTLTCTVSGFSLSTHDISWVRQAPGKGLEWIGVIARRGSTYYASWAKGRFTISKTSTTVDLKITSPTIEDTATYFCAREEFDFWGQGTLVTVSS VL: AVLTQTASPVSAAVGGTVTISCQSSQTVYNNKELSWFQQKPGQPPKLLISYASTLASGVPSRFKGSGSGTQFTLTISDLECDDAATYYCLGGYASTIDMWAFGGGTEVVVK | 1.11 OD450 | 1.43 fold of WT | 1.11 OD450 | 1.43 fold of WT
9 | 65D3 chimeric Fab, NNK library L20 mutant S to T (L-S57T) (Fab, V domains shown) VH: QSLEESGGRLVTPGGSLTLTCTVSGFSLSTHDISWVRQAPGKGLEWIGVIARRGSTYYASWAKGRFTISKTSTTVDLKITSPTIEDTATYFCAREEFDFWGQGTLVTVSS VL: AVLTQTASPVSAAVGGTVTISCQSSQSVYNNKELSWFQQKPGQPPKLLISYASTLATGVPSRFKGSGSGTQFTLTISDLECDDAATYYCLGGYASTIDMWAFGGGTEVVVK | 0.977 OD450 | 2.05 fold of WT |  | 
10 | 65D3 chimeric Fab, NNK library L5 mutant S to F (VL S27F) (Fab, V domains shown) VH: QSLEESGGRLVTPGGSLTLTCTVSGFSLSTHDISWVRQAPGKGLEWIGVIARRGSTYYASWAKGRFTISKTSTTVDLKITSPTIEDTATYFCAREEFDFWGQGTLVTVSS VL: AVLTQTASPVSAAVGGTVTISCQSSQFVYNNKELSWFQQKPGQPPKLLISYASTLASGVPSRFKGSGSGTQFTLTISDLECDDAATYYCLGGYASTIDMWAFGGGTEVVVK | 1.11 OD450 | 1.43 fold of WT | 1.11 OD450 | 1.43 fold of WT
11 | 65D3 chimeric Fab, NNK library L3 mutant S to R (VL S25R) (Fab, V domains shown) VH: QSLEESGGRLVTPGGSLTLTCTVSGFSLSTHDISWVRQAPGKGLEWIGVIARRGSTYYASWAKGRFTISKTSTTVDLKITSPTIEDTATYFCAREEFDFWGQGTLVTVSS VL: AVLTQTASPVSAAVGGTVTISCQSRQSVYNNKELSWFQQKPGQPPKLLISYASTLASGVPSRFKGSGSGTQFTLTISDLECDDAATYYCLGGYASTIDMWAFGGGTEVVVK | 0.963 OD450 and 0.995 OD450 and 1.04 OD450 | 1.19 fold of WT and 1.23 fold of WT and 1.29 fold of WT | 0.963 OD450 | 1.19 fold of WT
12 | 65D3 chimeric Fab, NNK library L3 mutant S to L (VL S25L) (Fab, V domains shown) VH: QSLEESGGRLVTPGGSLTLTCTVSGFSLSTHDISWVRQAPGKGLEWIGVIARRGSTYYASWAKGRFTISKTSTTVDLKITSPTIEDTATYFCAREEFDFWGQGTLVTVSS VL: AVLTQTASPVSAAVGGTVTISCQSLQSVYNNKELSWFQQKPGQPPKLLISYASTLASGVPSRFKGSGSGTQFTLTISDLECDDAATYYCLGGYASTIDMWAFGGGTEVVVK | 0.954 OD450 | 1.18 fold of WT | 0.954 OD450 | 1.18 fold of WT
13 | 65D3 chimeric Fab, NNK library L8 mutant N to R (VL N30R) (Fab, V domains shown) VH: QSLEESGGRLVTPGGSLTLTCTVSGFSLSTHDISWVRQAPGKGLEWIGVIARRGSTYYASWAKGRFTISKTSTTVDLKITSPTIEDTATYFCAREEFDFWGQGTLVTVSS VL: AVLTQTASPVSAAVGGTVTISCQSSQSVYRNKELSWFQQKPGQPPKLLISYASTLASGVPSRFKGSGSGTQFTLTISDLECDDAATYYCLGGYASTIDMWAFGGGTEVVVK |  |  | 0.958 OD450 | 1.26 fold of WT
14 | 65D3 chimeric Fab, NNK library L5 mutant S to Y (VL S27Y) (Fab, V domains shown) VH: QSLEESGGRLVTPGGSLTLTCTVSGFSLSTHDISWVRQAPGKGLEWIGVIARRGSTYYASWAKGRFTISKTSTTVDLKITSPTIEDTATYFCAREEFDFWGQGTLVTVSS VL: AVLTQTASPVSAAVGGTVTISCQSSQYVYNNKELSWFQQKPGQPPKLLISYASTLASGVPSRFKGSGSGTQFTLTISDLECDDAATYYCLGGYASTIDMWAFGGGTEVVVK | 1.1 OD450 and 1.12 OD450 | 1.41 fold of WT and 1.44 fold of WT | 1.12 OD450 | 1.44 fold of WT
15 | 65D3 chimeric Fab, NNK library L3 mutant S to K (VL S25K) (Fab, V domains shown) VH: QSLEESGGRLVTPGGSLTLTCTVSGFSLSTHDISWVRQAPGKGLEWIGVIARRGSTYYASWAKGRFTISKTSTTVDLKITSPTIEDTATYFCAREEFDFWGQGTLVTVSS VL: AVLTQTASPVSAAVGGTVTISCQSKQSVYNNKELSWFQQKPGQPPKLLISYASTLASGVPSRFKGSGSGTQFTLTISDLECDDAATYYCLGGYASTIDMWAFGGGTEVVVK | 0.982 OD450 | 1.22 fold of WT | 0.982 OD450 | 1.22 fold of WT
16 | 65D3 chimeric Fab, NNK library L5 mutant S to V (VL S27V) (Fab, V domains shown) VH: QSLEESGGRLVTPGGSLTLTCTVSGFSLSTHDISWVRQAPGKGLEWIGVIARRGSTYYASWAKGRFTISKTSTTVDLKITSPTIEDTATYFCAREEFDFWGQGTLVTVSS VL: AVLTQTASPVSAAVGGTVTISCQSSQVVYNNKELSWFQQKPGQPPKLLISYASTLASGVPSRFKGSGSGTQFTLTISDLECDDAATYYCLGGYASTIDMWAFGGGTEVVVK | 1.09 OD450 | 1.41 fold of WT | 1.09 OD450 | 1.41 fold of WT
17 | 65D3 chimeric Fab, NNK library L5 mutant S to M (VL S27M) (Fab, V domains shown) VH: QSLEESGGRLVTPGGSLTLTCTVSGFSLSTHDISWVRQAPGKGLEWIGVIARRGSTYYASWAKGRFTISKTSTTVDLKITSPTIEDTATYFCAREEFDFWGQGTLVTVSS VL: AVLTQTASPVSAAVGGTVTISCQSSQMVYNNKELSWFQQKPGQPPKLLISYASTLASGVPSRFKGSGSGTQFTLTISDLECDDAATYYCLGGYASTIDMWAFGGGTEVVVK | 1.16 OD450 and 1.14 OD450 | 1.49 fold of WT and 1.47 fold of WT | 1.14 OD450 | 1.47 fold of WT
